This note sets out measurements from paper PMC3430514.

For data set [1], the target named is T1, RIG-I helicase-RD (human, UniProt O95786 232-925).
T1 sequence: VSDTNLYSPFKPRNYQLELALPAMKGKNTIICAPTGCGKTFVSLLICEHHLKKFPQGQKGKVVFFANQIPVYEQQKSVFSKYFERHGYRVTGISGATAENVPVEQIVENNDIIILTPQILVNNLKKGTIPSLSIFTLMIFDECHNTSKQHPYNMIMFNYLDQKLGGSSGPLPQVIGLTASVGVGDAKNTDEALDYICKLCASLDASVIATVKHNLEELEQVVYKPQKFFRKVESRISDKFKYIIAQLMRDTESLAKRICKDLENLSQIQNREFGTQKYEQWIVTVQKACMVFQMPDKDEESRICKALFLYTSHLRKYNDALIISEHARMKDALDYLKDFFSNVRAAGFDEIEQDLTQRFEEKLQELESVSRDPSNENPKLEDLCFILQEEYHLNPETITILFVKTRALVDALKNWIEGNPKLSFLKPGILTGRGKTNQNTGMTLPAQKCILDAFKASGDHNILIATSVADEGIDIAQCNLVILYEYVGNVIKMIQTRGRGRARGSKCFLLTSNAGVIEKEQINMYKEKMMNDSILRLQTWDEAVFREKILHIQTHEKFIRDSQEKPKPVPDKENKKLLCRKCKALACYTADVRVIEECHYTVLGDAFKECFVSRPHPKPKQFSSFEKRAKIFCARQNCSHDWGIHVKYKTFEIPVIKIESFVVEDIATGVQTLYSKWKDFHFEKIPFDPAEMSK
Put plainly: X-ray crystallography.

The target of data set [2] is T2, RIG-I helicase domain (human, UniProt O95786 232-794).
T2 sequence: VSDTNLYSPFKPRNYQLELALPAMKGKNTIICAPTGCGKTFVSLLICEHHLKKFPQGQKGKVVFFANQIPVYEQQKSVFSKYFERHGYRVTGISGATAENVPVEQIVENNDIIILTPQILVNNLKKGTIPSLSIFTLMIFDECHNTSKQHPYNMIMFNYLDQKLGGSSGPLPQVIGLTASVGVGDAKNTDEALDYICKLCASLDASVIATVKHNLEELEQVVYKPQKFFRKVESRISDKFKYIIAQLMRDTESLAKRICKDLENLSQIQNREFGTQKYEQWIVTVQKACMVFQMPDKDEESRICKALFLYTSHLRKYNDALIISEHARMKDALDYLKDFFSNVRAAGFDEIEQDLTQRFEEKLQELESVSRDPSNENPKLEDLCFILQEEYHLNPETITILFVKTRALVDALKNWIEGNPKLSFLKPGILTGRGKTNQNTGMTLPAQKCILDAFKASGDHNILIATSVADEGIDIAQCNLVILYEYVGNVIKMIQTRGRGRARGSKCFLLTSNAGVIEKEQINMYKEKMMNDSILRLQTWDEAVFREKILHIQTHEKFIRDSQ
Put plainly: fluorescence anisotropy. A general note: Fluorescence polarisation rises when a labelled molecule tumbles more slowly, as on binding a larger partner.

Data set [3] concerns the target T3, RIG-I RD (repressor domain) (human, UniProt O95786 795-925).
T3 sequence: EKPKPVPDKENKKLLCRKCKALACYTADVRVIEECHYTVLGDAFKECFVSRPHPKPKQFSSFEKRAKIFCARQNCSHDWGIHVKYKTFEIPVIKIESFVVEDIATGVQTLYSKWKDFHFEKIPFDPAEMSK
Put plainly: fluorescence anisotropy.

Data set [4] addresses T2, RIG-I helicase domain. Put plainly: fluorescence anisotropy. This is another data set of the same source.
The target in data set [5] is T4, RIG-I full-length (human, UniProt O95786 1-925).
T4 sequence: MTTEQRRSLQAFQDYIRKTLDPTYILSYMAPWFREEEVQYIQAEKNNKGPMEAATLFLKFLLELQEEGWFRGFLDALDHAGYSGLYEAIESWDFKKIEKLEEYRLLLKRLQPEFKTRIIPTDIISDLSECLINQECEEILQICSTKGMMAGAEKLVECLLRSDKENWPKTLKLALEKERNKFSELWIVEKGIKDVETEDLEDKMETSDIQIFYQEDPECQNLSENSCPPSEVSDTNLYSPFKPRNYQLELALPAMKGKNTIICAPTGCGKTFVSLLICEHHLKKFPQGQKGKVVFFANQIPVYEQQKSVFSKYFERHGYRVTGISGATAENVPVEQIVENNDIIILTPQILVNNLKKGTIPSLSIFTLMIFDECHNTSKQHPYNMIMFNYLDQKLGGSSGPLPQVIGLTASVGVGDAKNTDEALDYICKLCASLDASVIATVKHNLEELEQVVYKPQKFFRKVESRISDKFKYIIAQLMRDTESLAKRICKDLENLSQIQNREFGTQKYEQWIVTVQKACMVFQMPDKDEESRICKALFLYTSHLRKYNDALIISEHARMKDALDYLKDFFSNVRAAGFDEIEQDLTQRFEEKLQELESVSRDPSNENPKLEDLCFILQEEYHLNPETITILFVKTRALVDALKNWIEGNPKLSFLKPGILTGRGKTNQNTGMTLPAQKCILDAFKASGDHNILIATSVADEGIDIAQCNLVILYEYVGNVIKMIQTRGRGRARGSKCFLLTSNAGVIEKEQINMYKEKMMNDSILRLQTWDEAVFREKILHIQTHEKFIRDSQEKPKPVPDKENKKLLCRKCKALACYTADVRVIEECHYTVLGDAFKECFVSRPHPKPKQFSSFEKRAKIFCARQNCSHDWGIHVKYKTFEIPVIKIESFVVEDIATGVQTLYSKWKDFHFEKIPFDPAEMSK
Put plainly: fluorescence anisotropy.

Like-named read-outs stand apart in the source and are kept apart here.

B1: 14bp pal dsRNA (dsRNA)
RNA 1: CGACGCUAGCGUCG
RNA 2: CGACGCUAGCGUCG
modifications: 5-iodouridine derivative also crystallized
Regarding B1, in data set [1], the binding result is “binds”.

B2: 14bp dsRNA-F (dsRNA)
RNA 1: GGAGAGAACCGCCU
RNA 2: AGGCGGUUCUCUCC
modifications: 5'-OH
Regarding B2, the Kd (usually the free concentration of one partner at which half of the binding sites on the other are occupied at equilibrium, for simple one-to-one binding) in data set [2] came out at 1300 nM; in data set [3], 2.6 ± 1.2 nM; in data set [4] it was 436 ± 121 nM; in data set [5] it was 1.2 nM.
